Test [1] deals with Ran wild type, Ran-[γ-32P]GTP (UniProt P62826).
Test [2] concerns the target Human CRM1 (recombinant, untagged) (human, UniProt O14980 1-1071).

Some results are limits rather than exact numbers.

Sequence of Human CRM1 (recombinant, untagged) (human, UniProt O14980 1-1071) (O14980 whole entry): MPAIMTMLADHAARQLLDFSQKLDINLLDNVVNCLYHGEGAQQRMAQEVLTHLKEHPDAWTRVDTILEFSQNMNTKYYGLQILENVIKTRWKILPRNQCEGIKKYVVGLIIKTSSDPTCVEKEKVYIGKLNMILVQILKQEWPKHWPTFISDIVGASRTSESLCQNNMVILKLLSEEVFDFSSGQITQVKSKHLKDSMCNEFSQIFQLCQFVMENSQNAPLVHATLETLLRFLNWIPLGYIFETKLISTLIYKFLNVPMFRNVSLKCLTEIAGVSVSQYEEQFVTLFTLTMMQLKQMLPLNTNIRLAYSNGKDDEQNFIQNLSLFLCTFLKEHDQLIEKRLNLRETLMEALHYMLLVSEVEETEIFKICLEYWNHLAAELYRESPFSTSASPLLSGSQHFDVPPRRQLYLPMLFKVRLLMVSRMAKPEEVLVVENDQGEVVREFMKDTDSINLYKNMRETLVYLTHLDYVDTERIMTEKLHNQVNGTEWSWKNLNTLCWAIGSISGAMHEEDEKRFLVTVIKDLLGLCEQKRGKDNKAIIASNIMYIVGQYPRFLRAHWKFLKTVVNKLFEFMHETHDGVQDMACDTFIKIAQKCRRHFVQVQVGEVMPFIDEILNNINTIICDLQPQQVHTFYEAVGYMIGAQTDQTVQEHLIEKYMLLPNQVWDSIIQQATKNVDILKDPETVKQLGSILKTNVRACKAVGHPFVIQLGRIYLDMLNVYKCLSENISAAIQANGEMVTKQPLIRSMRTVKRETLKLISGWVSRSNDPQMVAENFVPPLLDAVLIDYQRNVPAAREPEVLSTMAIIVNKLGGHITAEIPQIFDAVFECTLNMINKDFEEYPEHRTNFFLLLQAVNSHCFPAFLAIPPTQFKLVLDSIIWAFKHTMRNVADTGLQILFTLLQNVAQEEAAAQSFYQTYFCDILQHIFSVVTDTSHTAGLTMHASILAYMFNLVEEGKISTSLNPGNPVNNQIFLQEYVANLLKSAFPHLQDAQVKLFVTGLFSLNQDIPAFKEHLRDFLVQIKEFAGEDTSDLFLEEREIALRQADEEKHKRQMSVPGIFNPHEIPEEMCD

As for “Human CRM1 (recombinant, untagged) (from UniProt O14980 1-1071) (natural protein; other documents disagree on this pair)”, the Kd in test [1] is above 1 µM.

CLPPLERLTL [Rev-NES peptide 1]: the equilibrium dissociation constant (Kd) in test [2] was around 50 µM.

B1: HIV Rev protein (natural protein)
chain: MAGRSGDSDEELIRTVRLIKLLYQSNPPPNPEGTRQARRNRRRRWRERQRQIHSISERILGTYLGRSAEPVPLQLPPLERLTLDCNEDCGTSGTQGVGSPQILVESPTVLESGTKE
Regarding B1, the dissociation constant (Kd) in test [2] is around 0.5 µM.

As to CPVPLQLPPLERLTLD [Rev-NES peptide 2], the Kd in test [2] is around 7 µM.

Broadly, the Kd is the constant that tells how readily two partners part at equilibrium.
